Among the data in paper PMC7747622 are Kd values, retold here.

The pKd is −log10 of the Kd, conventionally taken in molar units. High values mean a low Kd, low ones a high Kd.

pKd: −log10 of the molar value.

The subject of data set [1] is M-Ig of patient (monoclonal IgG kappa) (human (patient)). Kind of data set: SPR. The note with it: 2 mM Mg2+; aptamer immobilized; scrambled channel subtracted; SPR: PBS, 2 mM MgCl2 (SB), 6.25-200 nM IgG, 20 ul/min, 1:1 model; ELONA: SuperBlock or ChonBlock, 0.05% Tween 20, 2 mM MgCl2, washes PBS/2 mM MgCl2/0.05% Tween ….
The test system of data set [2] is daratumumab (anti-CD38 therapeutic mAb, IgG kappa). Description: SPR. To be noted: SPR: PBS, 2 mM MgCl2 (SB), 6.25-200 nM IgG, 20 ul/min, 1:1 model; ELONA: SuperBlock or ChonBlock, 0.05% Tween 20, 2 mM MgCl2, washes PBS/2 mM MgCl2/0.05% Tween ….

For the sequence “GGAGGCTCTCGGGACGACGAGTGTGTCAGGTGGATGGACGGTTGGGTTGGGTAGGCAAGGATCGCTGCTGACCAGTTGAG [aptC]”, the pKd in data set [1] is 8.73.

In turn, “GGAGGCTCTCGGGACGACGGCGCGGCGATTTGGGGTATGGGGAGGGGGTGGGTTGGGTCCATCGCTGCTGACCAGTTGAG [aptD]” gave a pKd in data set [2] of 8.57.
